Results as given in patent publication US20150197559A1.

Assays:
[1] = target: BoNT/B2 (Clostridium botulinum); test: KinExA flow fluorimetry, IgG in solution
[2] = target: BoNT/B3 (Clostridium botulinum); test: KinExA flow fluorimetry, IgG in solution
[3] = target: BoNT/B4 (Clostridium botulinum); test: KinExA flow fluorimetry, IgG in solution
[4] = target: BoNT/B2 (Clostridium botulinum); test: flow cytometry, yeast-displayed scFv, soluble toxin
[5] = target: BoNT/B2 (Clostridium botulinum); test: flow cytometry, yeast-displayed Fab, soluble toxin
[6] = target: BoNT/B2 (Clostridium botulinum); test: flow cytometry, yeast-displayed Fab against yeast-displayed scFv

B1: 1B22 IgG (antibody, V domains shown)
VH: QVQLQESGSRLVKPSQTLSLTCGVSGGSISSSSYSWSWIRQTPGKGLEWIGYIYHSGSTYYNPSLKSRVTMSVDKSRNQFSLNMSSVTAADTAVYYCARTAFYYENTGPIRCYLDFWGQGTLVTVSS
VL: DIQMTQSPSTLSASIGDRVTISCRASQSIQSWLAWYQQRPGEAPKLLIYSASTLQTGVPSRFSGSGSGTDFTLTISSLQPEDFATYYCQQYNSYPLTFGQGTKLEIK
In the case of B1, the Kd [1] is reported as 0.319 nM, the Kd [2] is reported as 0.221 nM and the Kd [3] is reported as 0.129 nM.

B2: B11E8 scFv (scFv)
scFv: EVQLVQSGGGVVQPGRSLRLSCAASGFIFRTYGMHWVRQAPGKGLEWVAFVSSDGNNKFYSDSVKGRFTISRDNAKNTLYLQMNSLETEDTAMYYCAKDRYPIDCSGGSCFSYGMDVWGQGTTVTVSSGGGGSGGGGSGGGGSEIVLTQSPATLSVSPGERATLSCRASQSVSKFLAWYQQKRGQAPRLLIYGASTRATGIPARFSGSGSGTEFALTISSLQSEDFADYYCQQYDNWPITFGQGTRLEIK
Work on B2 yielded a Kd [4] of 0.189 nM.

B3: B12.1 IgG (antibody, V domains shown)
VH: QVNLRESGGGVVQPGRSLRLSCAASGFTFSSYALHWVRQTPGKGLEWVALISYDGSNKYYADSVKGRFTISRDNSKNMLYLQMNSLRAEDTAVYYCAKDRSHYGDYVGYLDYWGQGTLVTVSS
VL: AYVLTQPPSVSVAPGKTAAITCEGNNVGNKNVHWYQQRPGQAPVLVVHDDSDRPSGIPERFSGSNSGNTATLTINRVEAGDEADYYCQVWDSSSAQWVFGGGTKLTVLG
B3 was tested, and the Kd [1] was 0.0162 nM, the Kd [2] was 0.0462 nM and the Kd [3] was 0.625 nM.

B4: 1B18 IgG (antibody, V domains shown)
VH: EVQLVQSGGGLVQPGGSRRLSCAASGFYFNAYWMTWVRQAPGKGLEWVANINLDGTEIYYLDSVKGRFTVSRDNVKNSVFLQMSSLRVEDTAVYFCARLEWGGRNGWVSPWGQGTLVTVSS
VL: DVVMTQSPSSVSASVGDRVTITCRASQSISSYLNWYQQRPGKAPKLLIFAASSLQSAVPSRFSGSGSGTDFTLTISSLQPEDFATYYCQQSYSTPPTFGQGTKVEIKR
Work on B4 yielded a Kd [1] of 0.817 nM, a Kd [2] of 0.972 nM and a Kd [3] of 0.021 nM.

B5: 2B30 scFv (scFv)
scFv: EVQLVESGGGVVQPGRSLRLSCAASGFTFRRNAIHWVRQAPGKGLEWVAVISYDGVNKYYAASVKGRFAISRDNAKNTLFLQMNSLRPEDSAIYYCARDVSEYGDYVGHFDYWGQGTLVTVSSGGGGSGGGGSGGGGSSYELMQLPSASGTPGQRVSISCSGSSSNIGSNPVNWYQQLPGTAPKLLIYSNNHRPSGVPDRFSGSKSGTSASLAISGLQSEDEADYYCAAWDGSLNGHVVFGGGTKLTVL
B5 was tested, and the Kd [4] was 0.19 nM.

B6: 2B25.1 IgG (antibody, V domains shown)
VH: QVQLQESGPGLVKPSQTLSLSCSVSGASITSGTFYWSWIRQHPGKDLEWIGYIYYSGTTYYNPSLKSRVTLSVDTSKNQFSLKVTSLTAADTAVYHCARGVPIYDSSGTYRGTYFDYWGQGTLVTVSS
VL: ESVLTQPPSVSAAPGQKVTISCSGSSSNIGNNYVSWYQQLPGTAPKLLIYDNNRRPSGIPDRFSGSKSGTSATLGITGLQTGDEADYYCGTWDSSLSEVVFGGGTKVTVLG
With B6 the Kd [1] was 0.0532 nM, the Kd [2] was 0.0177 nM and the Kd [3] was 0.03 nM.

B7: B11E8 Fab (Fab, V domains shown)
VH: EVQLVQSGGGVVQPGRSLRLSCAASGFIFRTYGMHWVRQAPGKGLEWVAFVSSDGNNKFYSDSVKGRFTISRDNAKNTLYLQMNSLETEDTAMYYCAKDRYPIDCSGGSCFSYGMDVWGQGTTVTVSS
VL: EIVLTQSPATLSVSPGERATLSCRASQSVSKFLAWYQQKRGQAPRLLIYGASTRATGIPARFSGSGSGTEFALTISSLQSEDFADYYCQQYDNWPITFGQGTRLEIKR
B7 gave a Kd [5] of 0.166 nM.

B8: B11E8 IgG (antibody, V domains shown)
VH: EVQLVQSGGGVVQPGRSLRLSCAASGFIFRTYGMHWVRQAPGKGLEWVAFVSSDGNNKFYSDSVKGRFTISRDNAKNTLYLQMNSLETEDTAMYYCAKDRYPIDCSGGSCFSYGMDVWGQGTTVTVSS
VL: EIVLTQSPATLSVSPGERATLSCRASQSVSKFLAWYQQKRGQAPRLLIYGASTRATGIPARFSGSGSGTEFALTISSLQSEDFADYYCQQYDNWPITFGQGTRLEIKR
Work on B8 yielded a Kd [1] of 0.0181 nM and a Kd [2] of 0.0156 nM.

B9: B11 Fab (Fab, V domains shown)
VH: QVQLLQSAGGVVQPGRSLRLSCAASGFIFRTYGMHWVRQAPGKGLEWVAFVSSDGNNKFYSDSVKGRFTIPRDNAKNTLYLQMNSLETEDTAVYYCAKDRYPIDCSGGSCFSYGMDVWGQGTTVTVSS
VL: DIVMTQSPSTLSASVGDRVTVTCRASQSINSWLAWYQQKPGKAPKLLIYEASSLESGVPSRFSGSGSGTEFTLTISSLQPDDFATYYCQQYDSYWLTFGGGTKVEIKR
Binder B9 has a fold higher affinity than the scFv [6] of 1.46 fold.

B10: 2B23 IgG (antibody, V domains shown)
VH: EVQLLESGGGLVQPGGSLRLSCAASGFTFSNYPMSWVRQAPGKGLAWVSSLTASGDNTFYADSVKGRFTISRDNSNNTLYLQMHSLRAEDTAVYYCAKALVGRYDISTGYYRPVMDSWGQGTLVTVSS
VL: DIQMTQSPPSLSASVGDRVTITCRTSQGFTSALAWYQQKPGEPPKLLIYDASKLESGVPSRFSGSGSGTNFALTISSLQPEDFATYFCQQSNSYPLTFGGGTKVEIKR
In the case of B10, the Kd [1] is reported as 0.0453 nM, the Kd [2] is reported as 0.048 nM and the Kd [3] is reported as 0.0552 nM.

B11: B6 scFv (scFv)
scFv: QVQLVQSGAEVKKPGESLVISCKASGDKDTFTSFWIAWVRQMPGKGLEWMGIIYAGDSDTRYSPSFQGHVNISVDRSTNTAYLQWSSLKASDTAMYYCARHDSRYKYFYFGMDVWGQGTTVTVSSGGGGSGGGGSGGGGSDVVMTQSPSSLSASVGDRITITCQAGQDISNFLNWYQQKPGKAPKLLIRDASNLETGVPSRFSGGGSGTHFTFTISSLHPEDIATYFCQQYDNLPYTFGQGTKLEIK
In the case of B11, the Kd [4] is reported as 1.77 nM.

B12: B11 scFv (scFv)
scFv: QVQLLQSAGGVVQPGRSLRLSCAASGFIFRTYGMHWVRQAPGKGLEWVAFVSSDGNNKFYSDSVKGRFTIPRDNAKNTLYLQMNSLETEDTAVYYCAKDRYPIDCSGGSCFSYGMDVWGQGTTVTVSSGGGGSGGGGSGGGGSDIVMTQSPSTLSASVGDRVTVTCRASQSINSWLAWYQQKPGKAPKLLIYEASSLESGVPSRFSGSGSGTEFTLTISSLQPDDFATYYCQQYDSYWLTFGGGTKVEIK
B12 showed a Kd [4] of 2.11 nM.

B13: 1B10.1 IgG (antibody, V domains shown)
VH: QVQLVESGGGVVQPGRSLRLSCAASGFTFSHYGMHWVRQSPGKGLEWVAVIWYDGRNPYYAASVKGRFTISRDNDKNTLYLQMNSLRAEDTAVYYCVKDLTRFHDTTFGVFEMWGPGTTVTVSS
VL: EIVLTQSPSFVSASVGDRVTITCRASQGISSWLAWYQQKPGKAPKLLIYAASSLQSGVPSRFSGSGSGTEFTLTISSLQPDDFATYYCQQYSSLYTFGQGTKVDIKR
In the case of B13, the Kd [1] is reported as 0.00031 nM, the Kd [2] is reported as 1.2 nM and the Kd [3] is reported as 0.00047 nM.
